According to patent US20210301005A1 (Genentech, published 2021):

Key:
[1] = biological target: T1, human TGFβ3, mature dimeric form (human, UniProt P10600 301-412); experiment: BIAcore T200
T1 construct: Peprotech, expressed in E. coli; also called TGFb3
T1 sequence: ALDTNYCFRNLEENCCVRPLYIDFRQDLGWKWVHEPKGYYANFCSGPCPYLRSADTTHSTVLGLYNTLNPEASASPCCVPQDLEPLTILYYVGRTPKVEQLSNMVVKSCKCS
Outline: (§1)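 Humanized antibodies captured on protein A CM5 chip (~100 RU), then 3-fold serial dilutions of TGFβ (0.02–5 nM) injected in HBS-EP pH 7.4 at 25° C., 50 μl/min. kon and koff from 1:1 Langmuir fit; KD = koff/kon.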

[2] = biological target: T2, human TGFβ1, mature receptor-binding domain (human, UniProt P01137 279-390); experiment: BIAcore T200
T2 construct: Peprotech; also called TGFb1
Outline: as §1

[3] = biological target: T3, human TGFβ2, mature receptor-binding domain (human, UniProt P09858 303-414 (pig entry), The mature TGFβ2 is a disulfide-linked homodimer of this 112-residue chain. The 4A11 epitope spans both monomers (p-1207).); experiment: BIAcore T200
T3 construct: Peprotech; also called TGFb2
T3 sequence: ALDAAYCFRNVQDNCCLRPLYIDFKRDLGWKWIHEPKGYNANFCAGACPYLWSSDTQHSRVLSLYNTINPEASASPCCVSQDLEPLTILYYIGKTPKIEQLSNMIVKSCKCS
Outline: as §1

[4] = biological target: T1, human TGFβ3, mature dimeric form; experiment: cell-based or functional assay
[5] = biological target: T2, human TGFβ1, mature receptor-binding …; experiment: cell-based or functional assay
[6] = biological target: T3, human TGFβ2, mature receptor-binding …; experiment: cell-based or functional assay
[7] = biological target: T1, human TGFβ3, mature dimeric form; experiment: SPR
[8] = biological target: T3, human TGFβ2, mature receptor-binding …; experiment: SPR

T2 sequence (P01137 279-390 limits assumed): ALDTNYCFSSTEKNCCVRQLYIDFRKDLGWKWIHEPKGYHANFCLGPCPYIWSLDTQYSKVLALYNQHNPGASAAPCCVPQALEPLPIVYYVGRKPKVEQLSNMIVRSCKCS

Kd [1]: 1.2 pM | Kd [2]: > 5000 pM | Kd [3]: 1.6 pM | Blocking IC50 [4]: 30 pM | Blocking IC50 [5]: > 500000 pM | Blocking IC50 [6]: 250 pM | Kd [7]: 5 pM | Kd [8]: 8 pM
B1: 4A11 (antibody, V domains shown)
VH: QSLEESGGRLVTPGTPLTLTCTVSGFSLSSYTVNWVRQAPGKGLEWIGYISYGGSAYYASWANGRFTISKTSATVDLKITSPTTEDTATYFCARHMQVGGAPTGSMAAFDPWGPGTLVTVSS
VL: AAVLTQTPSPVSAAVGGTVSISCQSSQSVYNNNYLSWFQQKPGQPPKLLIYGASTLTSGVPSRFKGSGSGTQFTLTISDVQCDDAATYYCAGGYSGSSDKYAFGGGTEVVVKG
notes: anti-TGFβ2/3, recombinant rabbit monoclonal; some paragraphs print the H/L pair as 32/33; also called Rb1.4A11; Rbt 4A11
